According to US8088412B2, “Intralymphatic chemotherapy drug carriers” (priority 2008, dated 2012):
“Also recorded” adds a separate entry of the source.

What was measured:
[1] = Long-term toxicology: pathological examination (H&E) at 30 days; assay type: in vivo, Sprague-Dawley rats; conditions: for lymphoid tissue histology (H&E) / underlying tissue at injection site: 30 days post injection; for brain tissue histology (H&E) / kidney tissue histology (H&E) / liver tissue histology (H&E): 30 days post single injection
Protocol: Each animal was administered a single bolus dose at the beginning of the 30-day study period. […] In order to reduce the stress to animals, subjects were housed in metabolic cages for 12 hrs to collect approximately 5 ml of urine and then returned to cages with bedding until the next collection period. Urine samples were centrifuged at 17,000×g for 5 mins and stored in −80° C. freezer until creatinine analysis.
The animals were euthanized at the end of the study (30 days) and the liver, bilateral kidneys, spleen, lungs, heart, right (ipsilateral) and left (contralateral) axillary nodes, and brain were excised intact and stored in 80% alcoholic formalin solution overnight for fixation before slide mounting. Mounting using haematoxylin & eosin (H&E) staining were conducted by Veterinary Lab Resources (Kansas City, Kans.). The pathological examination was performed by a blinded board-certified veterinarian pathologist (University of Kansas Medical Center, Kansas City, Kans.).

MDA-1986 = experiment: MTS cell viability assay, 72 hours; assay type: cell-based, human; conditions: 10 nM to 100 micromolar
Protocol: (§1) To evaluate the anticancer, specifically antiproliferative, effects of HA-cisplatin compared to standard CDDP in vitro in two human head and neck squamous cell carcinoma cell lines (JMAR and MDA-1986) a standard MTS assay was performed as per the manufacturer's specified protocol.
(§2) Once 75% confluent, cells were trypsinized (0.25% trypsin), counted and plated in 96-well microtiter plates (Costar, Cambridge, Mass., USA) (1×10^3 cells/well) in 100 μL of growth media. After an overnight attachment period, cells were exposed to varying concentration of […] for 3 days. All studies were performed in triplicate and repeated at least three times independently. After the 3-d treatment period, the number of viable cells was determined using a colorimetric Cell Proliferation assay (CellTiter96 Aqueous Nonradioactive Cell Proliferation assay; Promega, Madison Wis., USA), which measures the bioreduction of the MTS (3-[4,5-dimethylthiazol-2yl]-5-[3-carboxymethoxyphenyl]-2-[4-sulfophenyl]-2H tetrazolium) by dehydrogenase enzymes of metabolically active cells into soluble formazon product, in the presence of the electron coupling reagent PMS (phenazine methosulfate). To perform the assay, 20 μL of combined MTS/PMS solution containing 2 mg/mL MTS and 150 μM PMS in buffer (0.2 g/L KCl, 8.0 g/L NaCl, 0.2 g/L KH2PO4, 1.15 g/L, […] CaCl2-2H2O, […], MgCl2.6H2O, pH 7.35) was added to each well and then after 3 hr of incubation at 37° C. in a humidified 5% CO2 atmosphere, absorbance was measured at 490 nm in microplate reader. Triplicate wells with predetermined cell numbers were subjected to the above assay in parallel with the test samples to normalize the absorbance readings; this also provided internal confirmation that the assay was linear over the range of absorbance and cell numbers measured. Data was plotted as a function of % viability from controls (cell viability) vs. drug concentration (x-axis).

JMAR = experiment: MTS cell viability assay, 72 hours; assay type: cell-based, human; conditions: 10 nM to 100 micromolar
Protocol: as §1, §2

MDA-1986 cells = experiment: In vivo efficacy of HA-cisplatin, orthotopic HNSCC model; set-up: species or system Nu/Nu female athymic nude mice; conditions: subcutaneous, weekly dose of 3.3 mg/kg for 3 weeks; 5 mice
Excerpt: The in vivo efficacy of HA-cisplatin was studied. All treatment began once animal HNSCC tumors reached 100 mm3 volume. Treatment commenced for 3 weeks. All animals were given 5×10^5 MDA-1986 cells in the buccal mucosa of the left cheek (which is a novel orthotopic HNSCC model I developed this year) and tumors develop in 2-3 weeks.

[2] = system: MDA-MB-468LN human breast cancer cells; experiment: Tumor response, breast lymphatic tumor xenograft; assay type: in vivo, Nude nu/nu mice
Protocol: Nude nu/nu mice were implanted with 1×10^6 cells (MDA-MB-468LN human breast cancer cells) into the mammary fatpad, after approximately 4 weeks a 100-200 mm^3 tumor had developed in the axillary lymph node package. Animals were randomly divided into four treatment groups of five animals each: intravenous saline, s.q. HA, intravenous cisplatin, or s.q. HA-cisplatin. At this point, doses were administered to the animals. In the HA-cisplatin and the HA groups, HA-cisplatin (3.3 mg/kg based on Pt-content) or HA (3.3 mg/kg) was dissolved in 100 mcL saline was injected subcutaneously peritumorally. […] In all study groups, a second dose was administered after 1 week. Tumor volumes were measured weekly using calipers and the formula: Volume=0.52×(width^2*length). Animals were euthanized when the tumor volume exceeded […] or the body score index fell below 2.

Q: Which results are given for [PtCl(H2O)(NH3)2]OOCO-HA [HA-cisplatin]?
A: lymphoid tissue histology (H&E) ([1]; 1 mg/kg subcutaneous): normal findings; underlying tissue at injection site ([1]; 1 mg/kg subcutaneous): normal findings; brain tissue histology (H&E) ([1]; 1 mg/kg subcutaneous): normal findings; kidney tissue histology (H&E) ([1]; 1.0 mg/kg subcutaneous): normal appearance except for minimal renal tubular cell swelling and degeneration; liver tissue histology (H&E) ([1]; 1.0 mg/kg subcutaneous): Very mild changes; also recorded: normal appearance; lymphoid tissue histology (H&E) ([1]; 3.3 mg/kg subcutaneous): Very mild changes; also recorded: normal findings; underlying tissue at injection site ([1]; 3.3 mg/kg subcutaneous): normal findings; brain tissue histology (H&E) ([1]; 3.3 mg/kg subcutaneous): normal findings; kidney tissue histology (H&E) ([1]; 3.3 mg/kg subcutaneous): fairly normal appearance except for minor foci of tubular cell necrosis at the corticomedullary junction; liver tissue histology (H&E) ([1]; 3.3 mg/kg subcutaneous): Mild degeneration with some sinusoidal necroses; also recorded: fairly normal appearance except for very mild degeneration; animals diagnosed with mild renal necrosis ([1]; high dose (3.3 mg/kg) subcutaneous, 30 days, of 5): 20%; animals with renal necrosis ([1]; low dose (1.0 mg/kg) subcutaneous, 30 days): none; IC50 level compared with CDDP (MDA-1986): no significant difference; IC50 level compared with CDDP (MDA-1986; listed as HA-Cisplatin): very similar; IC50 level compared with CDDP (JMAR): no significant difference; IC50 level compared with CDDP (JMAR; listed as HA-Cisplatin): very similar; response to therapy (MDA-1986 cells): 2 animals had a complete response to therapy and the third (HA-cis 1) had a partial response to therapy; tumor growth delay (MDA-1986 cells): delayed tumor growth in all 5 animals; tumor growth delay compared to negative control group ([2]; 3.3 mg/kg (Pt) subcutaneously peritumorally, second dose after 1 week): 5 weeks; toxicity in treated tumor-bearing animals ([2]; 3.3 mg/kg subcutaneously peritumorally, two doses): no toxicity was observed
